Results: the supplement of paper PMC5998384

What was measured:
[1] = test system: HeLa Kyoto; experiment: solubility in G1/S (NP-40 vs SDS abundance) (log2 ratio); higher = more soluble; details: cell cycle stage: G1/S
[2] = test system: HeLa Kyoto; experiment: solubility change mitosis vs G1/S (difference of NP-40 vs SDS log2 ratios) (log2 ratio difference); higher = more soluble in mitosis
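Throughout, for solubility change mitosis vs G1/S (difference of NP-40 vs SDS log2 ratios): synchronized HeLa Kyoto cells (double thymidine block for G1/S, nocodazole release for mitosis), protein amounts in NP-40 versus SDS lysates quantified by mass spectrometry, three biological replicates.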
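Throughout, for solubility in G1/S (NP-40 vs SDS abundance): HeLa Kyoto cells arrested at G1/S by double thymidine block, proteins quantified by TMT10plex mass spectrometry in mild NP-40 versus SDS extracts, three biological replicates.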

Sequence | solubility in G1/S (log2) [1] | solubility change mitosis (log2) [2]
MEPQVTLNVTFKNEIQSFLVSDPENTTWADIEAMVKVSFDLNTIQIKYLDEENEEVSINSQGEYEEALKMAVKQGNQLQMQVHEGHHVVDEAPPPVVGAKRLAARAGKKPLAHYSSLVRVLGSDMKTPEDPAVQSFPLVPCDTDQPQDKPPDWFTSYLETFREQVVNETVEKLEQKLHEKLVLQNPSLGSCPSEVSMPTSEETLFLPENQFSWHIACNNCQRRIVGVRYQCSLCPSYNICEDCEAGPYGHDTNHVLLKLRRPVVGSSEPFCHSKYSTPRLPAALEQVRLQKQVDKNFLKAEKQRLRAEKKQRKAEVKELKKQLKLHRKIHLWNSIHGLQSPKSPLGRPESLLQSNTLMLPLQPCTSVMPMLSAAFVDENLPDGTHLQPGTKFIKHWRMKNTGNVKWSADTKLKFMWGNLTLASTEKKDVLVPCLKAGHVGVVSVEFIAPALEGTYTSHWRLSHKGQQFGPRVWCSIIVDPFPSEESPDNIEKGMISSSKTDDLTCQQEETFLLAKEERQLGEVTEQTEGTAACIPQKAKNVASERELYIPSVDLLTAQDLLSFELLDINIVQELERVPHNTPVDVTPCMSPLPHDSPLIEKPGLGQIEEENEGAGFKALPDSMVSVKRKAENIASVEEAEEDLSGTQFVCETVIRSLTLDAAPDHNPPCRQKSLQMTFALPEGPLGNEKEEIIHIAEEEAVMEEEEDEEDEEEEDELKDEVQSQSSASSEDYIIILPECFDTSRPLGDSMYSSALSQPGLERGAEGKPGVEAGQEPAEAGERLPGGENQPQEHSISDILTTSQTLETVPLIPEVVELPPSLPRSSPCVHHHGSPGVDLPVTIPEVSSVPDQIRGEPRGSSGLVNSRQKSYDHSRHHHGSSIAGGLVKGALSVAASAYKALFAGPPVTAQPIISEDQTAALMAHLFEMGFCDRQLNLRLLKKHNYNILQVVTELLQLNNNDWYSQRY [NBR1] | -0.371 | 0.193
MERAVRVESGVLVGVVCLLLACPATATGPEVAQPEVDTTLGRVRGRQVGVKGTDRLVNVFLGIPFAQPPLGPDRFSAPHPAQPWEGVRDASTAPPMCLQDVESMNSSRFVLNGKQQIFSVSEDCLVLNVYSPAEVPAGSGRPVMVWVHGGALITGAATSYDGSALAAYGDVVVVTVQYRLGVLGFFSTGDEHAPGNQGFLDVVAALRWVQENIAPFGGDLNCVTVFGGSAGGSIISGLVLSPVAAGLFHRAITQSGVITTPGIIDSHPWPLAQKIANTLACSSSSPAEMVQCLQQKEGEELVLSKKLKNTIYPLTVDGTVFPKSPKELLKEKPFHSVPFLMGVNNHEFSWLIPRGWGLLDTMEQMSREDMLAISTPVLTSLDVPPEMMPTVIDEYLGSNSDAQAKCQAFQEFMGDVFINVPTVSFSRYLRDSGSPVFFYEFQHRPSSFAKIKPAWVKADHGAEGAFVFGGPFLMDESSRLAFPEATEEEKQLSLTMMAQWTHFARTGDPNSKALPPWPQFNQAEQYLEINPVPRAGQKFREAWMQFWSETLPSKIQQWHQKQKNRKAQEDL [CES3] | 0.261 | -0.166
MERLRDVRERLQAWERAFRRQRGRRPSQDDVEAAPEETRALYREYRTLKRTTGQAGGGLRSSESLPAAAEEAPEPRCWGPHLNRAATKSPQSTPGRSRQGSVPDYGQRLKANLKGTLQAGPALGRRPWPLGRASSKASTPKPPGTGPVPSFAEKVSDEPPQLPEPQPRPGRLQHLQASLSQRLGSLDPGWLQRCHSEVPDFLGAPKACRPDLGSEESQLLIPGESAVLGPGAGSQGPEASAFQEVSIRVGSPQPSSSGGEKRRWNEEPWESPAQVQQESSQAGPPSEGAGAVAVEEDPPGEPVQAQPPQPCSSPSNPRYHGLSPSSQARAGKAEGTAPLHIFPRLARHDRGNYVRLNMKQKHYVRGRALRSRLLRKQAWKQKWRKKGECFGGGGATVTTKESCFLNEQFDHWAAQCPRPASEEDTDAVGPEPLVPSPQPVPEVPSLDPTVLPLYSLGPSGQLAETPAEVFQALEQLGHQAFRPGQERAVMRILSGISTLLVLPTGAGKSLCYQLPALLYSRRSPCLTLVVSPLLSLMDDQVSGLPPCLKAACIHSGMTRKQRESVLQKIRAAQVHVLMLTPEALVGAGGLPPAAQLPPVAFACIDEAHCLSQWSHNFRPCYLRVCKVLRERMGVHCFLGLTATATRRTASDVAQHLAVAEEPDLHGPAPVPTNLHLSVSMDRDTDQALLTLLQGKRFQNLDSIIIYCNRREDTERIAALLRTCLHAAWVPGSGGRAPKTTAEAYHAGMCSRERRRVQRAFMQGQLRVVVATVAFGMGLDRPDVRAVLHLGLPPSFESYVQAVGRAGRDGQPAHCHLFLQPQGEDLRELRRHVHADSTDFLAVKRLVQRVFPACTCTCTRPPSEQEGAVGGERPVPKYPPQEAEQLSHQAAPGPRRVCMGHERALPIQLTVQALDMPEEAIETLLCYLELHPHHWLELLATTYTHCRLNCPGGPAQLQALAHRCPPLAVCLAQQLPEDPGQGSSSVEFDMVKLVDSMGWELASVRRALCQLQWDHEPRTGVRRGTGVLVEFSELAFHLRSPGDLTAEEKDQICDFLYGRVQARERQALARLRRTFQAFHSVAFPSCGPCLEQQDEERSTRLKDLLGRYFEEEEGQEPGGMEDAQGPEPGQARLQDWEDQVRCDIRQFLSLRPEEKFSSRAVARIFHGIGSPCYPAQVYGQDRRFWRKYLHLSFHALVGLATEELLQVAR [RECQL4] | -0.103 | 0.0659
MERVNDASCGPSGCYTYQVSRHSTEMLHNLNQQRKNGGRFCDVLLRVGDESFPAHRAVLAACSEYFESVFSAQLGDGGAADGGPADVGGATAAPGGGAGGSRELEMHTISSKVFGDILDFAYTSRIVVRLESFPELMTAAKFLLMRSVIEICQEVIKQSNVQILVPPARADIMLFRPPGTSDLGFPLDMTNGAALAANSNGIAGSMQPEEEAARAAGAAIAGQASLPVLPGVDRLPMVAGPLSPQLLTSPFPSVASSAPPLTGKRGRGRPRKANLLDSMFGSPGGLREAGILPCGLCGKVFTDANRLRQHEAQHGVTSLQLGYIDLPPPRLGENGLPISEDPDGPRKRSRTRKQVACEICGKIFRDVYHLNRHKLSHSGEKPYSCPVCGLRFKRKDRMSYHVRSHDGSVGKPYICQSCGKGFSRPDHLNGHIKQVHTSERPHKCQTCNASFATRDRLRSHLACHEDKVPCQVCGKYLRAAYMADHLKKHSEGPSNFCSICNRGFSSASYLKVHVKTHHGVPLPQVSRHQEPILNGGAAFHCARTYGNKEGQKCSHQDPIESSDSYGDLSDASDLKTPEKQSANGSFSCDMAVPKNKMESDGEKKYPCPECGSFFRSKSYLNKHIQKVHVRALGGPLGDLGPALGSPFSPQQNMSLLESFGFQIVQSAFASSLVDPEVDQQPMGPEGK [PATZ1] | -0.643 | 0.402
MESTAYPLNLSLKEEEEEEEIQSRELEDGPADMQKVRICSEGGWVPALFDEVAIYFSDEEWEVLTEQQKALYREVMRMNYETVLSLEFPFPKPDMITRLEGEEESQNSDEWQLQGGTSAENEESDVKPPDWPNPMNATSQFPQPQHFDSFGLRLPRDITELPEWSEGYPFYMAMGFPGYDLSADDIAGKFQFSRGMRRSYDAGFKLMVVEYAESTNNCQAAKQFGVLEKNVRDWRKVKPQLQNAHAMRRAFRGPKNGRFALVDQRVAEYVRYMQAKGDPITREAMQLKALEIAQEMNIPEKGFKASLGWCRRMMRRYDLSLRHKVPVPQHLPEDLTEKLVTYQRSVLALRRAHDYEVAQMGNADETPICLEVPSRVTVDNQGEKPVLVKTPGREKLKITAMLGVLADGRKLPPYIILRGTYIPPGKFPSGMEIRCHRYGWMTEDLMQDWLEVVWRRRTGAVPKQRGMLILNGFRGHATDSVKNSMESMNTDMVIIPGGLTSQLQVLDVVVYKPLNDSVRAQYSNWLLAGNLALSPTGNAKKPPLGLFLEWVMVAWNSISSESIVQGFKKCHISSNLEEEDDVLWEIESELPGGGEPPKDCDTESMAESN [POGK] | -0.0733 | -0.0638
MFNRAVSRLSRKRPPSDIHDSDGSSSSSHQSLKSTAKWAASLENLLEDPEGVKRFREFLKKEFSEENVLFWLACEDFKKMQDKTQMQEKAKEIYMTFLSSKASSQVNVEGQSRLNEKILEEPHPLMFQKLQDQIFNLMKYDSYSRFLKSDLFLKHKRTEEEEEDLPDAQTAAKRASRIYNT [RGS10] | 0.563 | 0.405
MFRIEGLAPKLDPEEMKRKMREDVISSIRNFLIYVALLRVTPFILKKLDSI [TOMM5] | -0.518 | -0.172
